Biological target: T1, KRS WT-myc (C-terminus myc tagged KRS wild type) (human, UniProt Q15046 1-597)
T1 construct: Overexpressed in HCT116 cells and tested in lysate; The N-terminus may be cleaved in the cells under starvation; also called KRS-myc
Test: anti-myc immunoprecipitation from starved cells, western blot for syntenin-1 (FIG. 3d)
Method: FIG. 3d illustrates results investigating the interaction between KRS and syntenin-1 using D12A mutant. C-terminus myc tagged KRS WT and D12A mutant were transfected and overexpressed in cells, and after 24 hr, the transfectants were incubated in serum starvation media for 1 hr, followed by precipitation using anti-myc antibody, and then KRS-bound syntenin-1 was monitored by western blot (mock: control with empty vector introduced into cells).
The cells were lysed with 50 mM Tris-HCl (pH 7.4) buffer containing 150 mM NaCl, 10 mM NaF, 12 mM beta-glycerophosphate, 1 mM EDTA, 1% NP-40, 10% glycerol, and protease inhibiting agent. Then, the supernatant was dissolved in SDS sample buffer, followed by separation using SDS-PAGE. For immunoblotting of endogenous KRS, anti-KRS antibody was used. Antibodies against Hsp90, syntenin-1, GFP, myc, caspase-3, -6, -8, -9, while syntenin-1 were purchased from Santa Cruz, and antibodies against alix were purchased from Cell Signaling. The anti-KRS antibody was manufactured by ordinary procedures in which KRS protein (Genbank Accession No. NP_005539.1) represented by SEQ ID NO: 2 was injected into New Zealand white rabbits to induce immune response and their antibodies were obtained. […]

T1 sequence (Q15046 whole entry): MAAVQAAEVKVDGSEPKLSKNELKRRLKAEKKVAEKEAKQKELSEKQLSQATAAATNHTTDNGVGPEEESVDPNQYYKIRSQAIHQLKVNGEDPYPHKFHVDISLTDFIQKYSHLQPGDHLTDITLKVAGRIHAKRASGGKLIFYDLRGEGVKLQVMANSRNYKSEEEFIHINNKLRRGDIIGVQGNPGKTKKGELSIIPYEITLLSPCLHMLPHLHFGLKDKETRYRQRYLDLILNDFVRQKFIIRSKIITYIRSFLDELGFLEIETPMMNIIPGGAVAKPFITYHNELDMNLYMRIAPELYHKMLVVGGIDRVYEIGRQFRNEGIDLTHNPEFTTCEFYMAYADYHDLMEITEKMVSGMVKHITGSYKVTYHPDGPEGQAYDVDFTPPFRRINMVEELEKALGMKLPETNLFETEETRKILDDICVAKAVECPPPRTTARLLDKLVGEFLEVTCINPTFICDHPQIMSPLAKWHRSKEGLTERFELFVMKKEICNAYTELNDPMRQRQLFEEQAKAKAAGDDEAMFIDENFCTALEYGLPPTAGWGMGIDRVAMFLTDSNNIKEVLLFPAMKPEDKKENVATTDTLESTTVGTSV

B1: syntenin-1, endogenous in HCT116 cells (other)
chain: SLYPSLEDLKVDKVIQAQTAFSANPANPAILSEASAPIPHDGNLYPRLYPELSQYMGLSLNEEEIRANVAVVSGAPLQGQLVARPSSINYMVAPVTGNDVGIRRAEIKQGIREVILCKDQDGKIGLRLKSIDNGIFVQLVQANSPASLVGLRFGDQVLQINGENCAGWSSDKAHKVLKQAFGEKITMTIRDRPFERTITMHKDSTGHVGFIFKNGKITSIVKDSSAARNGLLTEHNICEINGQNVIGLKDSQIADILSTSGTVVTITIMPAFIFEHIIKRMAPSIMKSLMDHTIPEV
binding result: binds
